The source of these data is patent US20260250421A1 (BIOCYTOGEN PHARMACEUTICALS BEIJING, published 2026).

The target in assay [1] is T1, His-tagged human TROP2 protein (human, UniProt P09758 27-274).
T1 construct: Bought protein; also called hTROP2-His; ACRO Biosystems Cat# TR2-H5223; not shown: His tag
T1 sequence (looked up): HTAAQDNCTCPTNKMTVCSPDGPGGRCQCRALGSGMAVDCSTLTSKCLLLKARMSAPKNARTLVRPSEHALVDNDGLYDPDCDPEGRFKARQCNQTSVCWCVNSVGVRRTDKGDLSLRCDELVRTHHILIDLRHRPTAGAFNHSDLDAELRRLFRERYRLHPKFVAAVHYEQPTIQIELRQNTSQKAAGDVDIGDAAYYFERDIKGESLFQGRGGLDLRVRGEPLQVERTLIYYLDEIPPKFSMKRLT
The experiment in a line: SPR Biacore 8K, Ab on Protein A chip. The procedure: (§1) The affinity of the anti-PTK7/TROP2 bispecific antibodies to His-tagged human TROP2 protein (hTROP2-His, ACRO Biosystems Inc., Cat #: TR2-H5223), His-tagged […] monkey TROP2 protein (cTROP2-His, ACRO Biosystems Inc., Cat #: Cat: TR2-R52H3), His-tagged dog TROP2 protein (dTROP2-His, ACRO Biosystems Inc., Cat #: TR2-C52H4), hPTK7-His, cPTK7-His and dPTK7-His were measured by surface plasmon resonance (SPR) using Biacore™ (Biacore, INC, Piscataway N.J.) 8K biosensor equipped with pre-immobilized Protein A sensor chips.
A general note: Surface plasmon resonance follows binding to a sensor surface in real time, without labels.

For assay [2], the target named is T2, His-tagged human PTK7 protein (human, UniProt Q13308 31-704).
T2 construct: Bought protein; also called hPTK7-His; not shown: His tag
T2 sequence: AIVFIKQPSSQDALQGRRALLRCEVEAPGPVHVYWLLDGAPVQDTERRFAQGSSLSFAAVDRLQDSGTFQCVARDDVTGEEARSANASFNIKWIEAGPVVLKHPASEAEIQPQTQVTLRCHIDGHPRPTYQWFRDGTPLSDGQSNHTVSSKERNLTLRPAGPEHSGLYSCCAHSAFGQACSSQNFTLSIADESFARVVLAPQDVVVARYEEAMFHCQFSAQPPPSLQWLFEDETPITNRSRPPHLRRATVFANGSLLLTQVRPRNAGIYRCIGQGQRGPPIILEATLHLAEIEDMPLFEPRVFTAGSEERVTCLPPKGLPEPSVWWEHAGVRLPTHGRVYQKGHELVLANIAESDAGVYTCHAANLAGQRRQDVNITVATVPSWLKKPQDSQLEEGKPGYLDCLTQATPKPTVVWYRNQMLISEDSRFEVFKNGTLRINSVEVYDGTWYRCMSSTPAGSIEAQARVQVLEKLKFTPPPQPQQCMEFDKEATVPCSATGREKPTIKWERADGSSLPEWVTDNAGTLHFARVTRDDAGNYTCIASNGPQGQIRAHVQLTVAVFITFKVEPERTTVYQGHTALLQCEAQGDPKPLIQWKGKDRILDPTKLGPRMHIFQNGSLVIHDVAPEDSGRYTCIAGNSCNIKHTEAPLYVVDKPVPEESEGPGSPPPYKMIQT
Description: SPR Biacore 8K, Ab on Protein A chip. The protocol: as §1

Assay [3] deals with T3, His-tagged dog PTK7 protein (dog, UniProt Q13308 31-703 (human entry)).
T3 construct: also called dPTK7-His
T3 chain: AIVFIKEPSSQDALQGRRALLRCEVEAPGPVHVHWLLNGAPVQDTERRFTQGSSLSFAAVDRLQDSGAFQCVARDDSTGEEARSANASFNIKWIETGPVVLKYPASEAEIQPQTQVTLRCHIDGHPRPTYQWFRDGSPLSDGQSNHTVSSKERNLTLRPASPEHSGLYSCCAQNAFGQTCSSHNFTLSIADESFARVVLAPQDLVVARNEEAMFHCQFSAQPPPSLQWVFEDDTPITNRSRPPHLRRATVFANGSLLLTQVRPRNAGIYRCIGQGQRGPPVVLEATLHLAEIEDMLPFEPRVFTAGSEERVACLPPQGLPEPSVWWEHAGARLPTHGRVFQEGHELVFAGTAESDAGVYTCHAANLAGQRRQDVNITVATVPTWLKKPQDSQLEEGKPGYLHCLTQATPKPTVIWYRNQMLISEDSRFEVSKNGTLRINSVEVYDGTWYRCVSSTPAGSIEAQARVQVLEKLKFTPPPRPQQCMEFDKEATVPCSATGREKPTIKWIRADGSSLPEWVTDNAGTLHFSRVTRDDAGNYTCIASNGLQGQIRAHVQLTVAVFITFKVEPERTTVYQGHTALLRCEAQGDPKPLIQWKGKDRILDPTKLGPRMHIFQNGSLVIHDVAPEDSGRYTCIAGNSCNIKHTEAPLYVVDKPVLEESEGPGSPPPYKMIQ
The experiment in a line: SPR Biacore 8K, Ab on Protein A chip. The procedure:
as §1

Assay [4] deals with T4, TROP2 on NCI-H1975 and NUGC-4 tumor cells (UniProt P09758 27-323, limits assumed).
T4 construct: whole, on cells; species of the lines is not worded there; also called TROP2 on cells
T4 sequence (looked up): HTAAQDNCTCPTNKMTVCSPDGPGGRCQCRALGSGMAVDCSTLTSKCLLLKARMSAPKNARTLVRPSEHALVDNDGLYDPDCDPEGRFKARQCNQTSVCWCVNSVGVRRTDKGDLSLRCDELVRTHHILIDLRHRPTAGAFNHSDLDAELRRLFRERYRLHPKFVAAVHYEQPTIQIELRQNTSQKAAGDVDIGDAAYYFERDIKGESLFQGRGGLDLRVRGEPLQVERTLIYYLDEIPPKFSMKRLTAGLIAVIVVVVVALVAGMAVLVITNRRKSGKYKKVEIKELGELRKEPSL
The experiment in a line: flow cytometry on NUGC-4 cells (only TROP2 expression), anti-hIgG-Fc Alexa Fluor 647 secondary antibody, MFI [B]. The procedure:
This experiment was performed to test the binding activities of the anti-PTK7/TROP2 bispecific antibodies to different tumor cell lines. NCI-H1975 cells or NUGC-4 cells were transferred to a 96-well plate at a density of 5×10⁴ cells/well respectively. The sample antibody was added to the 96-well plate, and incubated at 4° C. for 30 min.
In general terms: A flow cytometer gives signals particle by particle.

B1: 3C4-18E9 (bispecific antibody, human IgG1, V domains shown)
VH 1: QVQLEQSRAEVKKPGESLRISCKGSGYSFTSYWISWVRQMPGKGLEWMGRIDPSDSYTNYNPSFQGHVTISADKSISTAYLQWSSLKASDTAMYYCARRDGSYFDFDYWGQGTLVTVSS
VH 2: QLQLQQSGPGLLKPSETLSLTCTVSGGSISSSYYFWGWIRQPPGKGLEWIGAIYYIGNTHYNPSLKSRVTISIDTSKNQFSLNLNSVTAADTAIYYCARYEDTWNWFDPWGQGTLVTVSS
VL: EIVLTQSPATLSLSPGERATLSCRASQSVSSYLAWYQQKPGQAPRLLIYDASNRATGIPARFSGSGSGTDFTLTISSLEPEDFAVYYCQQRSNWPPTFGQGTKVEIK
notes: which arm carries the knob is stated only for 3C4-6F7; also called anti-PTK7/TROP2 bispecific antibody 3C4-18E9
As for B1, the values for the dissociation constant (Kd) in assay [1], in assay [2] and in assay [3] were 3.03 nM, 9.79 nM and 38.9 nM, respectively. Also, the koff – broadly, the first-order rate constant of dissociation – in assay [1] was determined as 0.00107 s⁻¹; in assay [2], 0.00125 s⁻¹; in assay [3], 0.00449 s⁻¹. The on-rate (kon) (as a rule, a measure of how fast the partners come together) worked out at 353000 M⁻¹ s⁻¹ in assay [1], 128000 M⁻¹ s⁻¹ in assay [2] and 115000 M⁻¹ s⁻¹ in assay [3]. Besides, the EC50 (read off the curve) (as a rule, the concentration giving half of the maximal effect) in assay [4] is around 0.6 µg/mL.
